The source of these data is patent US20240209076A1 (KODIAK SCIENCES, published 2024).

The target in assay [1] is T1, VEGF-A165 (UniProt P15692-4 27-191).
T1 construct: analyte of the Biacore assays
Put plainly: SPR (Biacore T200), 37 C, binder captured on a Protein A chip, VEGF-A165 0.19 to 15 nM flowed over, 1:1 Langmuir fit.

For assay [2], the target named is recombinant human IL-6 (human, UniProt P05231 30-212). Put plainly: SPR, antibody captured on Protein A, 37 C. How it is done:
Antibodies were captured on a Protein A chip (GE) by injecting 1:20 cell supernatant dilutions at 10 μL/min for 60 seconds. […] The sensor chip was regenerated by a 60 seconds injection of 10 mM Glycine pH 1.7 at the flow rate of 50 μL/min. […] For this setup, 1 μg/mL of purified antibody was injected over a Protein A chip at 10 μL/min for 25 seconds. […] The sensor chip was regenerated by a 60 seconds injection of 10 mM Glycine pH 1.7 at flow rate of 50 μL/min. Data analysis for supernatant and purified samples were performed using BIAevaluation software (GE). All sensorgrams were double reference subtracted and fit using a 1:1 Langmuir binding model.

Assay [3] has as its target VEGF (UniProt P15692-4 27-191, limits assumed). Put plainly: cell-based or functional assay.
Target sequence in this assay (P15692 other isoform, or with tags, fused parts or gaps limits assumed): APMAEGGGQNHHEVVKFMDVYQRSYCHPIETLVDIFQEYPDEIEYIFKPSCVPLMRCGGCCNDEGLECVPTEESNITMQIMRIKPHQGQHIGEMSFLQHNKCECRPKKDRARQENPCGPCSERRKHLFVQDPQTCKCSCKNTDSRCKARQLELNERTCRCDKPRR
The target of assay [4] is T1, VEGF-A165. Put plainly: Biacore T200 SPR at 37 C, binder captured on Protein A chip, VEGF-A165 0.19 to 15 nM in five steps, 60 min dissociation, 1:1 Langmuir fit. As for the experimental part:
FIGS. 14A-14F illustrate the results for a series of Biacore assays used to determine the affinity between Anti-VEGF agents and VEGF. Binding kinetics between molecules were measured using a Biacore T200 (GE Healthcare) at 37° C. in buffer HBS-EP+ containing 1 mg/mL BSA. […] The sensor chip surface was regenerated by 60 seconds injection of 10 mM Glycine, pH 1.7 at a flow rate of 50 μl/min. All sensorgrams were double reference subtracted and fit using a 1:1 Langmuir binding model.

Assay [5] deals with T2, VEGF (UniProt P15692-4 27-191, limits assumed).
T2 construct: also called VEGF-A
Put plainly: KinExA 3200, in solution, 37 C.
T2 sequence (P15692 other isoform, or with tags, fused parts or gaps limits assumed): as above

In assay [6] the target is T3, human IL-6 (human, UniProt P05231 30-212). Put plainly: KinExA 3200, in solution, 37 C.
T3 sequence (P05231 30-212 limits assumed): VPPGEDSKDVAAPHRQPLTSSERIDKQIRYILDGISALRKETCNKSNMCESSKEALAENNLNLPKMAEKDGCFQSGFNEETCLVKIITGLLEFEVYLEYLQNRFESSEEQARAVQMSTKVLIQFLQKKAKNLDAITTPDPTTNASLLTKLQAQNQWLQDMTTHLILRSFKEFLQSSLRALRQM
Assay [7] addresses T2, VEGF. Put plainly: KinExA 3200, kinetic measurement, 37 C.
The target of assay [8] is T3, human IL-6. Put plainly: KinExA 3200, kinetic measurement, 37 C.
For assay [9], the target named is T2, VEGF. Put plainly: KinExA 3200, calculated as Kd x kon, 37 C.
For assay [10], the target named is T3, human IL-6. Put plainly: KinExA 3200, calculated as Kd x kon, 37 C.

T1 sequence (P15692 other isoform, or with tags, fused parts or gaps limits assumed): as the sequence (P15692 other isoform, or with tags, fused parts or gaps limits assumed) above
Chain of recombinant human IL-6 (P05231 30-212 limits assumed): as the sequence (P05231 30-212 limits assumed) above

B1: VEGFR-Fc (VEGF trap Fc fusion, sequence 6A) (Fc fusion)
chain: SDTGRPFVEMYSEIPEIIHMTEGRELVIPCRVTSPNITVTLKKFPLDTLIPDGKRIIWDSRKGFIISNATYKEIGLLTCEATVNGHLYKTNYLTHRQTNTIIDVVLSPSHGIELSVGEKLVLNCTARTELNVGIDFNWEYPSSKHQHKKLVNRDLKTQSGSEMKKFLSTLTIDGVTRSDQGLYTCAASSGLMTKKNSTFVRVHEKDKTHTCPPCPAPEAAGAPSVFLFPPKPKDTLMISRTPEVTCVVVDVSHEDPEVKFNWYVDGVEVHNAKTKPREEQYNSTYRVVSVLTVLHQDWLNGKEYKCKVSNKALPAPIEKTISKAKGQPREPQVYTLPPSREEMTKNQVSLTCLVKGFYPSDIAVEWESNGQPENNYKTTPPVLDSDGSFFLYSKLTVDKSRWQQGNVFSCSVMHEALHNHYTQKSLSCSPGK
notes: VEGF trap with engineered IgG1 Fc (L234A, L235A, G237A, L443C); also called VEGFR-Trap Fc fusion
In assay [1], B1 had a Kd of 0.0102 nM, a koff of 9.29e-05 s⁻¹ and a kon of 9.14e+06 M⁻¹ s⁻¹.

B2: anti-IL-6 antibody, heavy chain S35H G66D, light chain M32L/M50D/N52S/M88Q (antibody, human IgG1, V domains shown)
VH: EVQLVESGGGLVQPGGSLRLSCAASGFTFSPFAMHWVRQAPGKGLEWVAKISPGGSWTYYSDTVTDRFTFSLDTSKSTAYLQMNSLRAEDTAVYYCARQLWGYYALDIWGQGTLVTVSS
VL: DIQLTQSPSSLSASVGDRVTITCSASISVSYLYWYQQKPGKAPKLLIYDDSSLASGVPSRFSGSGSGTDFTLTISSLQPEDFATYYCQQWSGYPYTFGQGTKVEIK
notes: see m23; engineered human IgG1; also called S35H G66D double mutant
For B2, in assay [2], the “fold increase in affinity” value was ~1.3 fold.

B3: anti-IL-6 antibody, heavy chain S35H G66D, light chain wild-type (antibody, human IgG1, V domains shown)
VH: EVQLVESGGGLVQPGGSLRLSCAASGFTFSPFAMHWVRQAPGKGLEWVAKISPGGSWTYYSDTVTDRFTFSLDTSKSTAYLQMNSLRAEDTAVYYCARQLWGYYALDIWGQGTLVTVSS
VL: DIQLTQSPSSLSASVGDRVTITCSASISVSYMYWYQQKPGKAPKLLIYDMSNLASGVPSRFSGSGSGTDFTLTISSLQPEDFATYYCMQWSGYPYTFGQGTKVEIK
notes: as for B2
On to B3, for which, in assay [2], the “fold increase in affinity” value is ~2 fold.

B4: VEGFR-Anti-IL-6 (sequences 1A-2A-3H, light chain 4A) (other)
heavy: SDTGRPFVEMYSEIPEIIHMTEGRELVIPCRVTSPNITVTLKKFPLDTLIPDGKRIIWDSRKGFIISNATYKEIGLLTCEATVNGHLYKTNYLTHRQTNTIIDVVLSPSHGIELSVGEKLVLNCTARTELNVGIDFNWEYPSSKHQHKKLVNRDLKTQSGSEMKKFLSTLTIDGVTRSDQGLYTCAASSGLMTKKNSTFVRVHEKGGGGSGGGGSEVQLVESGGGLVQPGGSLRLSCAASGFTFSPFAISWVRQAPGKGLEWVAKISPGGSWTYYSDTVTDRFTFSLDTSKSTAYLQMNSLRAEDTAVYYCARQLWGYYALDVWGQGTLVTVSSASTKGPSVFPLAPSSKSTSGGTAALGCLVKDYFPEPVTVSWNSGALTSGVHTFPAVLQSSGLYSLSSVVTVPSSSLGTQTYICNVNHKPSNTKVDKKVEPKSCDKTHTCPPCPAPEAAGAPSVFLFPPKPKDTLMISRTPEVTCVVVDVSHEDPEVKFNWYVDGVEVHNAKTKPREEQYNSTYRVVSVLTVLHQDWLNGKEYKCKVSNKALPAPIEKTISKAKGQPREPQVYTLPPSREEMTKNQVSLTCLVKGFYPSDIAVEWESNGQPENNYKTTPPVLDSDGSFFLYSKLTVDKSRWQQGNVFSCSVMHEALHNHYTQKSLSCSPGK
light: DIQLTQSPSSLSASVGDRVTITCSASISVSYLYWYQQKPGKAPKLLIYDDSSLASGVPSRFSGSGSGTDFTLTISSLQPEDFATYYCQQWSGYPYTFGQGTKVEIKRTVAAPSVFIFPPSDEQLKSGTASVVCLLNNFYPREAKVQWKVDNALQSGNSQESVTEQDSKDSTYSLSSTLTLSKADYEKHKVYACEVTHQGLSSPVTKSFNRGEC
notes: linker 2A is the double Gly-Gly-Gly-Gly-Ser repeat
B4: the “cell-based VEGF stimulated VEGFR reporter assay (KDR/VEGF HEK293, luminescence), IC50” value in assay [3] worked out at 0.18 nM. Moreover, in assay [4], the Kd was 0.00798 nM, the koff worked out at 0.000603 s⁻¹ and the kon is 7.55e+07 M⁻¹ s⁻¹.

B5: VEGFR-AntiIL6 (other)
heavy: SDTGRPFVEMYSEIPEIIHMTEGRELVIPCRVTSPNITVTLKKFPLDTLIPDGKRIIWDSRKGFIISNATYKEIGLLTCEATVNGHLYKTNYLTHRQTNTIIDVVLSPSHGIELSVGEKLVLNCTARTELNVGIDFNWEYPSSKHQHKKLVNRDLKTQSGSEMKKFLSTLTIDGVTRSDQGLYTCAASSGLMTKKNSTFVRVHEKGGGGSGGGGSEVQLVESGGGLVQPGGSLRLSCAASGFTFSPFAMHWVRQAPGKGLEWVAKISPGGSWTYYSDTVTDRFTFSLDTSKSTAYLQMNSLRAEDTAVYYCARQAWGYYALDIWGQGTLVTVSSASTKGPSVFPLAPSSKSTSGGTAALGCLVKDYFPEPVTVSWNSGALTSGVHTFPAVLQSSGLYSLSSVVTVPSSSLGTQTYICNVNHKPSNTKVDKKVEPKSCDKTHTCPPCPAPEAAGAPSVFLFPPKPKDTLMISRTPEVTCVVVDVSHEDPEVKFNWYVDGVEVHNAKTKPREEQYNSTYRVVSVLTVLHQDWLNGKEYKCKVSNKALPAPIEKTISKAKGQPREPQVYTLPPSREEMTKNQVSLTCLVKGFYPSDIAVEWESNGQPENNYKTTPPVLDSDGSFFLYSKLTVDKSRWQQGNVFSCSVMHEALHNHYTQKSLSCSPGK
light: DIQLTQSPSSLSASVGDRVTITCSASISVSYLYWYQQKPGKAPKLLIYDDSSLASGVPSRFSGSGSGTDFTLTISSLQPEDFATYYCQQWSGYPYTFGQGTKVEIKRTVAAPSVFIFPPSDEQLKSGTASVVCLLNNFYPREAKVQWKVDNALQSGNSQESVTEQDSKDSTYSLSSTLTLSKADYEKHKVYACEVTHQGLSSPVTKSFNRGEC
notes: VEGF trap (VEGFR1 domain 2 - VEGFR2 domain 3) fused by a GS linker to the N-terminus of the anti-IL-6 IgG1 heavy chain; also called VEGF Trap-anti-IL6 antibody fusion
As to B5, the Kd in assay [5] came out at 0.0021 nM; in assay [6], 0.0211 nM. In addition, the kon in assay [7] turned out to be 4.04e+07 M⁻¹ s⁻¹; in assay [8] it was 1.15e+07 M⁻¹ s⁻¹. The koff in assay [9] is 8.49e-05 s⁻¹; in [10] it was 0.000242 s⁻¹.

B6: VEGFR_variant_3-Anti-IL-6 (T94I/H95I) (other)
fusion: SDTGRPFVEMYSEIPEIIHMTEGRELVIPCRVTSPNITVTLKKFPLDTLIPDGKRIIWDSRKGFIISNATYKEIGLLTCEATVNGHLYKTNYLIIRQTNTIIDVVLSPSHGIELSVGEKLVLNCTARTELNVGIDFNWEYPSSKHQHKKLVNRDLKTQSGSEMKKFLSTLTIDGVTRSDQGLYTCAASSGLMTKKNSTFVRVHEKGGGGSGGGGSEVQLVESGGGLVQPGGSLRLSCAASGFTFSPFAISWVRQAPGKGLEWVAKISPGGSWTYYSDTVTDRFTFSLDTSKSTAYLQMNSLRAEDTAVYYCARQLWGYYALDVWGQGTLVTVSSASTKGPSVFPLAPSSKSTSGGTAALGCLVKDYFPEPVTVSWNSGALTSGVHTFPAVLQSSGLYSLSSVVTVPSSSLGTQTYICNVNHKPSNTKVDKKVEPKSCDKTHTCPPCPAPEAAGAPSVFLFPPKPKDTLMISRTPEVTCVVVDVSHEDPEVKFNWYVDGVEVHNAKTKPREEQYNSTYRVVSVLTVLHQDWLNGKEYKCKVSNKALPAPIEKTISKAKGQPREPQVYTLPPSREEMTKNQVSLTCLVKGFYPSDIAVEWESNGQPENNYKTTPPVLDSDGSFFLYSKLTVDKSRWQQGNVFSCSVMHEALHNHYTQKSLSCSPGK
light: DIQLTQSPSSLSASVGDRVTITCSASISVSYLYWYQQKPGKAPKLLIYDDSSLASGVPSRFSGSGSGTDFTLTISSLQPEDFATYYCQQWSGYPYTFGQGTKVEIKRTVAAPSVFIFPPSDEQLKSGTASVVCLLNNFYPREAKVQWKVDNALQSGNSQESVTEQDSKDSTYSLSSTLTLSKADYEKHKVYACEVTHQGLSSPVTKSFNRGEC
In [4], B6 yielded a Kd of 0.0187 nM, a koff of 0.00266 s⁻¹ and a kon of 1.42e+08 M⁻¹ s⁻¹.
